Assay in all cases: cryo-EM structure
The target in assay [1] is Bufavirus 1 (BuV1) VP2, assembled as virus-like particles (Bufavirus 1 (BuV1)).
Assay [2] addresses Bufavirus 2 (BuV2) VP2, assembled as virus-like particles (Bufavirus 2 (BuV2)).
Assay [3] concerns the target Bufavirus 3 (BuV3) VP2, assembled as virus-like particles (Bufavirus 3 (BuV3)).

Drawing on PMC5795435, this text covers stoichiometry N for three substances.

“Bufavirus 1 (BuV1) VP2, assembled as virus-like particles (natural protein)” had a stoichiometry N in assay [1] of 60.
On to “Bufavirus 2 (BuV2) VP2, assembled as virus-like particles (natural protein)”, for which, in assay [2], the stoichiometry N stood at 60.
As to “Bufavirus 3 (BuV3) VP2, assembled as virus-like particles (natural protein)”, the stoichiometry N in assay [3] turned out to be 60.

What is called stoichiometry N is the number of molecules, sites or subunits per partner or assembly.
